According to IntAct's records for PubMed 35512704:

B1: Speckle-type POZ protein (Homo sapiens), O43791 (parent)
chain: MSRVPSPPPPAEMSSGPVAESWCYTQIKVVKFSYMWTINNFSFCREEMGEVIKSSTFSSGANDKLKWCLRVNPKGLDEESKDYLSLYLLLVSCPKSEVRAKFKFSILNAKGEETKAMESQRAYRFVQGKDWGFKKFIRRDFLLDEANGLLPDDKLTLFCEVSVVQDSVNISGQNTMNMVKVPECRLADELGGLWENSRFTDCCLCVAGQEFQAHKAILAARSPVFSAMFEHEMEESKKNRVEINDVEPEVFKEMMCFIYTGKAPNLDKMADDLLAAADKYALERLKVMCEDALCSNLSVENAAEILILADLHSADQLKTQAVDFINYHASDVLETSGWKSMVVSHPHLVAEAYRSLASAQCPFLGPPRKRLKQS
partner: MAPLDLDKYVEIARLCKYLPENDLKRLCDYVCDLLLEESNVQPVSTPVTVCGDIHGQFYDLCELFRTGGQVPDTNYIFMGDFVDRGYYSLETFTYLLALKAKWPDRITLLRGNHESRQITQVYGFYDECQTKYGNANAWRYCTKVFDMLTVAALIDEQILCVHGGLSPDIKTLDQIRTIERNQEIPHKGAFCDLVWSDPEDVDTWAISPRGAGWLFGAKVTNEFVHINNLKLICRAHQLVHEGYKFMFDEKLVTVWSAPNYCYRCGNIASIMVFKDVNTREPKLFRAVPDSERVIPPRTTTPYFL
B2: Speckle-type POZ protein (Homo sapiens), O43791 (parent)
chain: B1 chain
partner: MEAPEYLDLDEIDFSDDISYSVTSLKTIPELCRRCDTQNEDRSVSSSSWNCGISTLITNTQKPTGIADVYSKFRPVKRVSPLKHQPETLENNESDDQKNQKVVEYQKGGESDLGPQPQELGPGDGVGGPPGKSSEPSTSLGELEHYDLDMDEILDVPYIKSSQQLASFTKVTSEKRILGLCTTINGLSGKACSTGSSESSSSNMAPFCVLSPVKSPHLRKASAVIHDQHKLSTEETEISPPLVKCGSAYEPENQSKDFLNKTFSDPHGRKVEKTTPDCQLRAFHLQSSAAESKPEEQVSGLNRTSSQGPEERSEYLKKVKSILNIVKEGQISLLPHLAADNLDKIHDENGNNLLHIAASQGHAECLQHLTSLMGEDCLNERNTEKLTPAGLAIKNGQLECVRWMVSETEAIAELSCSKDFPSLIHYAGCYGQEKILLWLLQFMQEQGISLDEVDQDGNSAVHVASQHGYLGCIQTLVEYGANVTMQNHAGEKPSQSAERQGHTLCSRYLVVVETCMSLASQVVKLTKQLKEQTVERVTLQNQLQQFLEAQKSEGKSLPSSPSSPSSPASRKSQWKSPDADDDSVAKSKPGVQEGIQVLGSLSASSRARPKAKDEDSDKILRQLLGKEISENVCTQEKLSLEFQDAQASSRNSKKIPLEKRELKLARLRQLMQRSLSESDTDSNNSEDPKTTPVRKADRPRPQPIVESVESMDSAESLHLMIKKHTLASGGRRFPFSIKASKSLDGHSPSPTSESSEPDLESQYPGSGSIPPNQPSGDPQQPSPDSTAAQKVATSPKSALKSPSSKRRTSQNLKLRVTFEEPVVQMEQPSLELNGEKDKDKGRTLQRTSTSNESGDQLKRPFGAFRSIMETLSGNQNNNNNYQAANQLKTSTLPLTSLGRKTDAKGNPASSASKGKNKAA
B3: Speckle-type POZ protein (Homo sapiens), O43791 (parent)
chain: B1 chain
partner: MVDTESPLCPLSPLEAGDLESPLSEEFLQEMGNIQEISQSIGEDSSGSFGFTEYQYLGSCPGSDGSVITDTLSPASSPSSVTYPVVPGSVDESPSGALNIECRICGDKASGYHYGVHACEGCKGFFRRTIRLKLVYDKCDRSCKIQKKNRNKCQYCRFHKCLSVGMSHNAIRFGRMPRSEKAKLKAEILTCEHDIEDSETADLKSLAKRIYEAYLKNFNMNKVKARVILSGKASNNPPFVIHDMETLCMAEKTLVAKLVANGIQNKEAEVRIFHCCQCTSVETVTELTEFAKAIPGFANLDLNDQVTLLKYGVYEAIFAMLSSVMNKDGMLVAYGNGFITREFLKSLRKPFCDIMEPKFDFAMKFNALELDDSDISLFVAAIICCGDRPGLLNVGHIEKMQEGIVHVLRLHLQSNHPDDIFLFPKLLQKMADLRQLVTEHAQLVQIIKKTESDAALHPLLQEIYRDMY
B4: Speckle-type POZ protein (Homo sapiens), O43791 (parent)
chain: B1 chain
partner: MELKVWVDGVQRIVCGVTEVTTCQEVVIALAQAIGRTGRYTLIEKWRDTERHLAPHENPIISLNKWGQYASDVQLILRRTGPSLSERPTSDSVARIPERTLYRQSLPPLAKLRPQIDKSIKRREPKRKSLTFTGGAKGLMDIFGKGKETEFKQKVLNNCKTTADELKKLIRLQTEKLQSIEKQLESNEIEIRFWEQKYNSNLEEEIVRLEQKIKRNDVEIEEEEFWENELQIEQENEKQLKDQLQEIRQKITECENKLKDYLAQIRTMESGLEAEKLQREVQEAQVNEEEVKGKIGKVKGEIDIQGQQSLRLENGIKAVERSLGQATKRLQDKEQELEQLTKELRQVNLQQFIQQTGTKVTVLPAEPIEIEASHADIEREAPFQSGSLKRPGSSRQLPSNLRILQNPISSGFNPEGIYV
B5: Speckle-type POZ protein (Homo sapiens), O43791 (parent)
chain: B1 chain
partner: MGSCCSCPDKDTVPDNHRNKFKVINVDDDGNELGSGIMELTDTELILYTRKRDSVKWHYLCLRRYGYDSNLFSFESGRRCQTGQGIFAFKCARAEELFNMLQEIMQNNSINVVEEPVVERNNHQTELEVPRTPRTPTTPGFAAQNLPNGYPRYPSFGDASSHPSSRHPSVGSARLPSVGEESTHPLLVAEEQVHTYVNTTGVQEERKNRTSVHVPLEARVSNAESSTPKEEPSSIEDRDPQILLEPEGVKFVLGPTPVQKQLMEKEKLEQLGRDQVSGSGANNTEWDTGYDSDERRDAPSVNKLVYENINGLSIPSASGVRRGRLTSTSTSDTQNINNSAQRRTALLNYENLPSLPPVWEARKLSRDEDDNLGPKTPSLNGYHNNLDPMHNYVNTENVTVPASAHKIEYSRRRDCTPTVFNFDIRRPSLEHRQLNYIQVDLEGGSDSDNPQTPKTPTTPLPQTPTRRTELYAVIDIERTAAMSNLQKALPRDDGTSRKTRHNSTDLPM
B6: Speckle-type POZ protein (Homo sapiens), O43791 (parent)
chain: B1 chain
partner: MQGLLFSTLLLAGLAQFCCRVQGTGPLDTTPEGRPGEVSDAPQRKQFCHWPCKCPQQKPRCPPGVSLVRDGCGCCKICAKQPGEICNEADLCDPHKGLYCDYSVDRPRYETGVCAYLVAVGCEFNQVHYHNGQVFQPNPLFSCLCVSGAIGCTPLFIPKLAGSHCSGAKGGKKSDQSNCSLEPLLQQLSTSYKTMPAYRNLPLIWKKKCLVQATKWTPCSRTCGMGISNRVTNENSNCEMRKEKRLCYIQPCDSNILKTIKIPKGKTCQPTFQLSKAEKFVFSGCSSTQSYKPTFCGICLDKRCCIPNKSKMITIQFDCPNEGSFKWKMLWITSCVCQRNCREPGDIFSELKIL
B7: Speckle-type POZ protein (Homo sapiens), O43791 (parent)
chain: B1 chain
partner: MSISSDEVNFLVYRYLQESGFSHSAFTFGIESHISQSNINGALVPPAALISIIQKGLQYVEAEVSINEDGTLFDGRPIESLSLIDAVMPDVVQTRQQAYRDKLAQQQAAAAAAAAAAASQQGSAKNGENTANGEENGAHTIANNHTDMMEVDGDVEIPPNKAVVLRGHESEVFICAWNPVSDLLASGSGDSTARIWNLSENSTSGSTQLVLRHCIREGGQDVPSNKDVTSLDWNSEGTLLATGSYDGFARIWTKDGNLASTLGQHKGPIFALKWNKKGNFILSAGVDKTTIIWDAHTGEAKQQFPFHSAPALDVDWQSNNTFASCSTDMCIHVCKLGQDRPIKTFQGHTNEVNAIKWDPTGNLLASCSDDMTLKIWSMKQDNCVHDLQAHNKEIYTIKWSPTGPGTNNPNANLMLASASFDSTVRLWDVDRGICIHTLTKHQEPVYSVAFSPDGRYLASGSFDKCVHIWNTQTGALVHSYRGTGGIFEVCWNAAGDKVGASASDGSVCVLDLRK

Variants of: B1
Details: with ppp6_human PPP6C

| effect of a mutation on the interaction | Variant |
| --- | --- |
| with no effect | F133V |

Variants of: B1
Details: with ppp6_human PPP6C
Remark: another data set of the same source

| effect of a mutation on the interaction | Variant |
| --- | --- |
| with no effect | F133L |

Variants of: B1
Details: with ppp6_human PPP6C
Remark: another data set of the same source

| effect of a mutation on the interaction | Variant |
| --- | --- |
| with no effect | F102C |

Variants of: B2
Details: with sncap_human SNCAIP

| effect of a mutation on the interaction | Variant |
| --- | --- |
| with no effect | F133V |

Variants of: B2
Details: with sncap_human SNCAIP
Remark: another data set of the same source

| effect of a mutation on the interaction | Variant |
| --- | --- |
| with no effect | F133L |

Variants of: B2
Details: with sncap_human SNCAIP
Remark: another data set of the same source

| effect of a mutation on the interaction | Variant |
| --- | --- |
| with no effect | Y87C |

Variants of: B2
Details: with sncap_human SNCAIP
Remark: another data set of the same source

| effect of a mutation on the interaction | Variant |
| --- | --- |
| with no effect | F102C |

Variants of: B3
Details: with ppara_human PPARA

| effect of a mutation on the interaction | Variant |
| --- | --- |
| with no effect | F133L |

Variants of: B3
Details: with ppara_human PPARA
Remark: another data set of the same source

| effect of a mutation on the interaction | Variant |
| --- | --- |
| with no effect | F133V |

Variants of: B3
Details: with ppara_human PPARA
Remark: another data set of the same source

| effect of a mutation on the interaction | Variant |
| --- | --- |
| with no effect | F102C |

Variants of: B3
Details: with ppara_human PPARA
Remark: another data set of the same source

| effect of a mutation on the interaction | Variant |
| --- | --- |
| with no effect | Y87C |

Variants of: B4
Details: with rasf8_human RASSF8, Q8NHQ8

| effect of a mutation on the interaction | Variant |
| --- | --- |
| with no effect | Y87C |

Variants of: B4
Details: with rasf8_human RASSF8, Q8NHQ8
Remark: another data set of the same source

| effect of a mutation on the interaction | Variant |
| --- | --- |
| with no effect | F133V |

Variants of: B4
Details: with rasf8_human RASSF8, Q8NHQ8
Remark: another data set of the same source

| effect of a mutation on the interaction | Variant |
| --- | --- |
| with no effect | F133L |

Variants of: B4
Details: with rasf8_human RASSF8, Q8NHQ8
Remark: another data set of the same source

| effect of a mutation on the interaction | Variant |
| --- | --- |
| with no effect | F102C |

Variants of: B5
Details: with frs2_human FRS2, Q8WU20

| effect of a mutation on the interaction | Variant |
| --- | --- |
| with no effect | F133V |

Variants of: B5
Details: with frs2_human FRS2, Q8WU20
Remark: another data set of the same source

| effect of a mutation on the interaction | Variant |
| --- | --- |
| with no effect | F133L |

Variants of: B6
Details: with ccn6_human CCN6, O95389

| effect of a mutation on the interaction | Variant |
| --- | --- |
| with no effect | F102C |

Variants of: B6
Details: with ccn6_human CCN6, O95389
Remark: another data set of the same source

| effect of a mutation on the interaction | Variant |
| --- | --- |
| with no effect | Y87C |

Variants of: B6
Details: with ccn6_human CCN6, O95389
Remark: another data set of the same source

| effect of a mutation on the interaction | Variant |
| --- | --- |
| with no effect | F133V |

Variants of: B6
Details: with ccn6_human CCN6, O95389
Remark: another data set of the same source

| effect of a mutation on the interaction | Variant |
| --- | --- |
| with no effect | F133L |

Variants of: B7
Details: with tbl1r_human TBL1XR1, Q9BZK7

| effect of a mutation on the interaction | Variant |
| --- | --- |
| with no effect | F133L |

Variants of: B7
Details: with tbl1r_human TBL1XR1, Q9BZK7
Remark: another data set of the same source

| effect of a mutation on the interaction | Variant |
| --- | --- |
| with no effect | F133V |

Variants of: B7
Details: with tbl1r_human TBL1XR1, Q9BZK7
Remark: another data set of the same source

| effect of a mutation on the interaction | Variant |
| --- | --- |
| with no effect | Y87C |
